Results: IntAct's records for PubMed 26258305

B1: Protein TIFY 7 (Arabidopsis thaliana (Mouse-ear cress)), Q8W4J8 (parent)
chain: MERDFLGLSDKQYLSNNVKHEVNDDAVEERGLSTKAAREWGKSKVFATSSFMPSSDFQEAKAFPGAYQWGSVSAANVFRRCQFGGAFQNATPLLLGGSVPLPTHPSLVPRVASSGSSPQLTIFYGGTISVFNDISPDKAQAIMLCAGNGLKGETGDSKPVREAERMYGKQIHNTAATSSSSATHTDNFSRCRDTPVAATNAMSMIESFNAAPRNMIPSVPQARKASLARFLEKRKERLMSAMPYKKMLLDLSTGESSGMNYSSTSPT
partner: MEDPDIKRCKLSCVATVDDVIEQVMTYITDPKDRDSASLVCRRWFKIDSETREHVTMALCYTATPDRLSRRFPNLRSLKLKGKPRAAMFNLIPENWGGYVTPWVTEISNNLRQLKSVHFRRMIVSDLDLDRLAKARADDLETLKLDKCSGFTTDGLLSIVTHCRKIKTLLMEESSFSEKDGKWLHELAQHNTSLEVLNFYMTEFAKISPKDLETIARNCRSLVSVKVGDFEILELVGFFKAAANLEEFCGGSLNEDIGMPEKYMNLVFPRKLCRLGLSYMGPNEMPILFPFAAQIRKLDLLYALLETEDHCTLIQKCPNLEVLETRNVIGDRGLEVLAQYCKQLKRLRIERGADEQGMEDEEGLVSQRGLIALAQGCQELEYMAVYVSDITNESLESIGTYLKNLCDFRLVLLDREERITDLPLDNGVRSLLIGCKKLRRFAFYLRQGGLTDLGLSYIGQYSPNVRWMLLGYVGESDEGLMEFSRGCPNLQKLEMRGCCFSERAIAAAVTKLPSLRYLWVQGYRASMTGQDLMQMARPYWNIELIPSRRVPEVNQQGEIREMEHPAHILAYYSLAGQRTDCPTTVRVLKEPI
B2: Protein TIFY 7 (Arabidopsis thaliana (Mouse-ear cress)), Q8W4J8 (parent)
chain: B1 chain

Experiments:
coi1_arath COI1, O04197 = variants of: B1; conditions: with coi1_arath COI1, O04197
myc3_arath MYC3, Q9FIP9 = variants of: B2; conditions: with myc3_arath MYC3, Q9FIP9
myc2_arath MYC2, Q39204 = variants of: B2; conditions: with myc2_arath MYC2, Q39204
myc4_arath MYC4, O49687 = variants of: B2; conditions: with myc4_arath MYC4, O49687
Chain of myc4_arath MYC4, O49687 (O49687 whole entry): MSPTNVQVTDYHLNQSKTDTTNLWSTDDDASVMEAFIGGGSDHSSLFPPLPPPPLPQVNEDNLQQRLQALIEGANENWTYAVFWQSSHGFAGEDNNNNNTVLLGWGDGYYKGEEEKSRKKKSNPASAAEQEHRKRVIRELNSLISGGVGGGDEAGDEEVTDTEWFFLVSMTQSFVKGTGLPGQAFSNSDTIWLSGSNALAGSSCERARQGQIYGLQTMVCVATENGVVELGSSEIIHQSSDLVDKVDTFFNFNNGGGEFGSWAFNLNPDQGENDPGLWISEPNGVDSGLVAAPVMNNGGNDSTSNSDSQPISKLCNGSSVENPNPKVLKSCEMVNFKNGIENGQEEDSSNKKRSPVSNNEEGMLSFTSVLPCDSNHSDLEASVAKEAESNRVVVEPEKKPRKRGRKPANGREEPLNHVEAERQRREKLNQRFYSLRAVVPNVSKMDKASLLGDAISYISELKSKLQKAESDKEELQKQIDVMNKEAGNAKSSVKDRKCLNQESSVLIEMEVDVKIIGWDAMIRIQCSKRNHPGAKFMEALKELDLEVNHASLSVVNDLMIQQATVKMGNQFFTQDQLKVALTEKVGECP

Chain of myc2_arath MYC2, Q39204 (Q39204 whole entry): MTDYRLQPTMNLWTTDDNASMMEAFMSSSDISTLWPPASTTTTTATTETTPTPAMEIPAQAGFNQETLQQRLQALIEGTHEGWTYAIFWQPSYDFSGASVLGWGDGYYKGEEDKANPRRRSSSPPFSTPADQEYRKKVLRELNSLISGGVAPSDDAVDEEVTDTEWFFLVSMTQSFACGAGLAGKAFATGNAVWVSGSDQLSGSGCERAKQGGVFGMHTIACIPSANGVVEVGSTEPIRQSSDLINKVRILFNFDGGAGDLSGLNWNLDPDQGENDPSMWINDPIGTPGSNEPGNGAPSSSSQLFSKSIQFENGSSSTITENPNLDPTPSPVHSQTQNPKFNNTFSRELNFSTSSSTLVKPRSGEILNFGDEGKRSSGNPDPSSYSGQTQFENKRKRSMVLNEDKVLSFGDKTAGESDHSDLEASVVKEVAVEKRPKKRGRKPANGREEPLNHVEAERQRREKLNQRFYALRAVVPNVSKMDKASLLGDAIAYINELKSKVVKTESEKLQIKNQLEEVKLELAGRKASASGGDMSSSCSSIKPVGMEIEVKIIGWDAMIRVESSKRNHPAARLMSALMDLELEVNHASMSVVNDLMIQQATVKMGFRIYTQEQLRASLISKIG
Chain of myc3_arath MYC3, Q9FIP9 (Q9FIP9 whole entry): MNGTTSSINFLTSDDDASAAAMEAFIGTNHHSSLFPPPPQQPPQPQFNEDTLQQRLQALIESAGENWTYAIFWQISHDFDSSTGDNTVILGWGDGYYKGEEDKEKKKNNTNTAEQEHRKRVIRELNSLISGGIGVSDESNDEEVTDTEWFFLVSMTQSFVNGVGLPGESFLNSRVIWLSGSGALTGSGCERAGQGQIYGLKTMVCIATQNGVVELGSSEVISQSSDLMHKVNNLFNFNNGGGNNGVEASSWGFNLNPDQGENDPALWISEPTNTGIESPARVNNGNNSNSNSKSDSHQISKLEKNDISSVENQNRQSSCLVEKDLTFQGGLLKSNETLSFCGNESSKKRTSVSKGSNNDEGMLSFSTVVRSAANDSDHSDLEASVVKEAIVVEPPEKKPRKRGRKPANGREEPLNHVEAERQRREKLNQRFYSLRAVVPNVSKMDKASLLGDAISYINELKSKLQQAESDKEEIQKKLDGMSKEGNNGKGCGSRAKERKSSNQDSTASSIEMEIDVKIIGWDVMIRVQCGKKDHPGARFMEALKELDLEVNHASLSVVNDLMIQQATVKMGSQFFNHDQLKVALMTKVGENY

For R223A;K224A, the “effect of a mutation on the interaction” value (coi1_arath COI1, O04197) was “disrupting interaction strength”.

With F230A the “effect of a mutation on the interaction” value (coi1_arath COI1, O04197) was “disrupting interaction strength”.

With R234A the “effect of a mutation on the interaction” value (coi1_arath COI1, O04197) was “disrupting interaction strength”.

S218A;V219A;P220A;Q221A was tested, and the “effect of a mutation on the interaction” value (coi1_arath COI1, O04197) was “disrupting interaction strength”.

For L231A, the “effect of a mutation on the interaction” value (coi1_arath COI1, O04197) was “decreasing interaction strength”.

In the case of L231A, the “effect of a mutation on the interaction” value (myc3_arath MYC3, Q9FIP9) is reported as “disrupting interaction strength”, the “effect of a mutation on the interaction” value (myc2_arath MYC2, Q39204) is reported as “decreasing interaction strength” and the “effect of a mutation on the interaction” value (myc4_arath MYC4, O49687) is reported as “decreasing interaction strength”.

In the case of L227A, the “effect of a mutation on the interaction” value (myc3_arath MYC3, Q9FIP9) is reported as “disrupting interaction strength”, the “effect of a mutation on the interaction” value (myc2_arath MYC2, Q39204) is reported as “disrupting interaction strength” and the “effect of a mutation on the interaction” value (myc4_arath MYC4, O49687) is reported as “disrupting interaction strength”.

R234A was tested, and the “effect of a mutation on the interaction” value (myc3_arath MYC3, Q9FIP9) was “disrupting interaction strength”, the “effect of a mutation on the interaction” value (myc2_arath MYC2, Q39204) was “disrupting interaction strength” and the “effect of a mutation on the interaction” value (myc4_arath MYC4, O49687) was “disrupting interaction strength”.

With F230A the “effect of a mutation on the interaction” value (myc3_arath MYC3, Q9FIP9) was “disrupting interaction strength”, the “effect of a mutation on the interaction” value (myc2_arath MYC2, Q39204) was “disrupting interaction strength” and the “effect of a mutation on the interaction” value (myc4_arath MYC4, O49687) was “disrupting interaction strength”.
